The record followed here is the RNAGym collection of RNA variant scans (doi:10.7554/elife.90254).

B1: OR4K15 (parent)
chain: GUUAACGGUCAUAGGCCAUGGAAACUAGGAGCACCAUUUCGCUGCCAGUGAAGAAAUGAACAAAGAAAAUCUGGGCCAGGCAGGCAUCAAAAGAAAUAGUCUUGCGCUCAACCAGAAAGUCUGUAAUCAUUUUAAGGGUA

This series covers variants of B1. Description: self-cleavage, relative activity (ratio to wild type); higher = more cleavage; in vitro, sequencing; the parent is a self-cleaving ribozyme.
Turning to A54U A63G, the self-cleavage was determined as 1.93. Consider A56C A117U, for which the self-cleavage was 0.96.

With A54G A111U, the self-cleavage is 0.06. In the case of A54G A111G, the self-cleavage came out at 0.03. The figure for A55G U131C is 1.63; for A54G C112G it is 0.01. Regarding A54G A117U, the self-cleavage was found to be 0.91.

On to U57A A82U, for which the self-cleavage was found to be 0.31. In the case of A55U A89U, the self-cleavage came out at 0.56. The figure for A56U A110U is 1; for A54U A125G it is 0.83. For A54G A66G, the self-cleavage was determined as 1.51. Next, A55G A63C: 0.12; A56G U102A: 0.97. The figure for A56G G106U is 0.01; for U57A A98C it is 1.24.

As for U57A A98G, the self-cleavage was found to be 0.42. The figure for A54G C85A is 0.82; for G53U A111G it is 0.04. The figure for A55G A110C is 0.2.

In the case of A56G A68C, the self-cleavage came out at 2.25.

For the variant A56G A90G, the self-cleavage came out at 1.03. In the case of A54C A60U, the self-cleavage turned out to be 1.33. The figure for A55G A66G is 1.4; for A55U A56C it is 2.18; for G53A A117G it is 2.26.

As to A54G A67U, the self-cleavage is 2.17.

Regarding A55G A69G, the self-cleavage worked out at 0.78. Next, A55G A69U: 0.23; A54G U100A: 0.57; A56C U133A: 1.4.

As to A55U U102A, the self-cleavage is 1.44. A55U U102C: the self-cleavage is 1.73.

Regarding A55G U127A, the self-cleavage amounted to 1.65.

Consider A54G U72A, for which the self-cleavage amounted to 0.19. Consider A54G U72C, for which the self-cleavage amounted to 0.23. Next, A55G C77U: 1.41. The figure for A54G G123A is 1.14; for A54U U103G it is 0.04; for A54U U103C it is 1.26. The figure for A54G A110C is 0.2; for A54G A110G it is 0.21. Turning to A56G U120G, the self-cleavage worked out at 1.98. In the case of A56G U120C, the self-cleavage is 0.89. The figure for A56G A95G is 1.69; for A55U A59U it is 1.92; for A54U A78C it is 0.29.

Regarding A54U A78U, the self-cleavage stood at 0.29. In the case of A54U A78G, the self-cleavage amounted to 0.25. Next, A55U U132C: 2.21; A56G A62U: 2.29; A55C G106A: 0.02. Next, A54G A55C: 1.94. The figure for A54G A55G is 0.99. As to G53A A118C, the self-cleavage was determined as 0.99. With U57A A86G, the self-cleavage came to 1.09. Next, A54G U57A: 1.26; A55G U103A: 0.46; A55G U103C: 1.06.

With A55C A59U, the self-cleavage was 1.8. Next, A55G U70C: 0.29. For A55G A82G, the self-cleavage stood at 0.83. On to A55G A82U, for which the self-cleavage turned out to be 0.22. For A56G U132A, the self-cleavage came out at 2.05. A55U U120C: the self-cleavage worked out at 0.86. As to A54U U131C, the self-cleavage stood at 1.11. Next, A56G A86U: 1.67; A56G A86G: 0.8.

As for A56G A86C, the self-cleavage turned out to be 1.48. As for A55G C76A, the self-cleavage amounted to 0.55. As to A52U U133C, the self-cleavage was 1.72. The figure for A56G A118G is 1.19; for A55G A116U it is 0.27; for A56G G115A it is 0.11. The figure for A56G G115U is 0.03.

Take A56U A114U: the self-cleavage was determined as 0.04. Next, A56U A114G: 0.36; A55U U133A: 1.58.

For A55U A126G, the self-cleavage is 1.47.

Consider A55U A82G, for which the self-cleavage was found to be 0.61. Next, A56G A140U: 2.1; A55U U122A: 0.96; A56G U100C: 2.18.

Turning to A55U A114G, the self-cleavage was 0.21. Next, A55U A114U: 0.03. In the case of A56C A59G, the self-cleavage amounted to 1.51. In the case of A52U A129G, the self-cleavage was determined as 0.81. The figure for U57A A68U is 1.15.

A55U A67G: the self-cleavage stood at 1.12. Next, A55U A67U: 1.6.

For the variant A56G A129G, the self-cleavage was found to be 1.45.

For A56G A129C, the self-cleavage came out at 1.03. Next, A54G A69G: 1.1; A54G A69C: 1.39; A54G G104A: 0.09. As to A55U A96C, the self-cleavage was 0.74.

Take A56G A89U: the self-cleavage amounted to 1.09. Next, A54U U127C: 0.18. The figure for A55G A111G is 0.03; for A52U U124C it is 0.48. Next, A55U A98U: 2.38. With A55U A98G, the self-cleavage was found to be 0.19. Next, A56U A96C: 0.35.

A56G A126G: the self-cleavage was found to be 0.36. Next, A55C: 0.94; A55U: 1.13; A55G: 1.06. Consider A56G U122C, for which the self-cleavage stood at 0.91. Next, A54U: 1.2. Next, A54C: 1.41.

Turning to A54G, the self-cleavage was 1.06. Next, A55G U102A: 0.81; A56U A59G: 1.62; A54C A95G: 2.18. On to A54G U122C, for which the self-cleavage amounted to 1. For A54G U122A, the self-cleavage came out at 1.72. Next, A55G A64G: 0.88; A55G A64U: 2.41; A55C A129G: 1.2. The figure for A55G A117G is 0.76.

With A56G A114C, the self-cleavage came out at 0.02. For the variant A56G A114U, the self-cleavage stood at 0.08. Take A56G A114G: the self-cleavage was determined as 0.31.

With A56C A118G, the self-cleavage worked out at 0.63. In the case of A54G U132A, the self-cleavage turned out to be 1.73. As for A54U A69G, the self-cleavage worked out at 0.53. Consider A56G U57A, for which the self-cleavage was 1.53.

As to A55U U131C, the self-cleavage turned out to be 2. Consider A52U U132C, for which the self-cleavage was found to be 1.06. The figure for A55C A110G is 1.02; for A55G A134G it is 1.23; for A56G U139C it is 0.78. The figure for A56G U139A is 1.41; for A55G G74U it is 0.1; for A56G A63U it is 1.68. For A52U A116G, the self-cleavage is 1.

As to A55G A126U, the self-cleavage stood at 0.86.

For A55G A126G, the self-cleavage is 0.33. The figure for A55G A91G is 0.98; for A56U C128A it is 1.6. The figure for A56C A69G is 1.24; for A54G A134G it is 1.2; for A55G U97A it is 1.51. Regarding A55G U97C, the self-cleavage is 1.27. The figure for A54U A116G is 0.83; for A56G U108C it is 0.01. Next, A54U U87C: 1.34. The figure for A56G C107A is 0.02; for A54U G74U it is 0.02. Consider A56G U97A, for which the self-cleavage came out at 2.36. Next, A55G A89G: 0.59; A55G A89U: 1.55; A54G A95G: 1.81. The figure for G53A U130C is 1.96. Next, A52U U131A: 1.49; A54C A64G: 1.36. In the case of A52U A140G, the self-cleavage worked out at 0.56.

Regarding A52U C101U, the self-cleavage came to 0.19. A54G G106U: the self-cleavage came to 0.02. For the variant A56G G83U, the self-cleavage amounted to 0.73. The figure for A54U U70C is 0.53; for A54G A135U it is 0.73; for A54G A135G it is 1.13. Regarding A55G U130A, the self-cleavage stood at 0.52.

Regarding A54G G136U, the self-cleavage stood at 2.55. On to A56G A94U, for which the self-cleavage was determined as 1.08. With A54G U124C, the self-cleavage was 0.75.
